B1: r16_88_TrROS_Hall (parent)
chain: EVIELKIKFKTPEQREKLKEIAKKLNAEVVEEKDGEVIIRFKTPEQAERALKEAEKLGAEVEL

Variants of: B1
Assay: folding stability dG (cDNA display proteolysis); higher = more stable
Settings: PBS, room temperature

Question: For F9T, which “folding stability dG” value is on record?
Answer: The value was 3.73 kcal/mol.

Question: Which “folding stability dG” value does the source give for F9G here?
Answer: Its value is 3.9 kcal/mol.

Question: For F9N, which “folding stability dG” value is on record?
Answer: Its value is 3.54 kcal/mol.

Question: With F9H as the variant, how does the “folding stability dG” value read?
Answer: The value was 4.19 kcal/mol.

Question: Which “folding stability dG” value does the source give for V2T here?
Answer: The value was 4.19 kcal/mol.

Question: With V2F as the variant, how does the “folding stability dG” value read?
Answer: The value was 4.68 kcal/mol.

Question: With V2K as the variant, how does the “folding stability dG” value read?
Answer: The value was 4.33 kcal/mol.

Question: For K24C, which “folding stability dG” value is on record?
Answer: The value was 4.53 kcal/mol.

Question: With K24R as the variant, how does the “folding stability dG” value read?
Answer: The value was 4.38 kcal/mol.

Question: For K24T, which “folding stability dG” value is on record?
Answer: Its value is 4.48 kcal/mol.

Question: With K24V as the variant, how does the “folding stability dG” value read?
Answer: The value was 4.61 kcal/mol.

Question: Which “folding stability dG” value does the source give for K24Y here?
Answer: The value was 4.84 kcal/mol.

Question: Which “folding stability dG” value does the source give for E4N here?
Answer: The value was 4.35 kcal/mol.

Question: For E4A, which “folding stability dG” value is on record?
Answer: Its value is 4.69 kcal/mol.

Question: With E4K as the variant, how does the “folding stability dG” value read?
Answer: Its value is 4.51 kcal/mol.

Question: With K33T as the variant, how does the “folding stability dG” value read?
Answer: The value was 4.35 kcal/mol.

Question: For K33C, which “folding stability dG” value is on record?
Answer: The value was 4.42 kcal/mol.

Question: Which “folding stability dG” value does the source give for K33S here?
Answer: Its value is 4.17 kcal/mol.

Question: Which “folding stability dG” value does the source give for K33L here?
Answer: Its value is 4.59 kcal/mol.

Question: With K33Y as the variant, how does the “folding stability dG” value read?
Answer: Its value is 4.31 kcal/mol.

Question: Which “folding stability dG” value does the source give for V37T here?
Answer: Its value is 4.32 kcal/mol.

Question: For V37H, which “folding stability dG” value is on record?
Answer: The value was 4.38 kcal/mol.

Question: For I21L, which “folding stability dG” value is on record?
Answer: The value was 4.39 kcal/mol.

Question: For N26P, which “folding stability dG” value is on record?
Answer: The value was 3.84 kcal/mol.

Question: With N26K as the variant, how does the “folding stability dG” value read?
Answer: The value was 4.44 kcal/mol.

Question: For N26L, which “folding stability dG” value is on record?
Answer: The value was 4.16 kcal/mol.

Question: Which “folding stability dG” value does the source give for A50W here?
Answer: Its value is 4.69 kcal/mol.

Question: For A50E, which “folding stability dG” value is on record?
Answer: Its value is 3.34 kcal/mol.

Question: With A50S as the variant, how does the “folding stability dG” value read?
Answer: Its value is 3.9 kcal/mol.

Question: Which “folding stability dG” value does the source give for K19Q here?
Answer: Its value is 4.3 kcal/mol.

Question: Which “folding stability dG” value does the source give for K19T here?
Answer: The value was 4.49 kcal/mol.

Question: For K19F, which “folding stability dG” value is on record?
Answer: Its value is 4.62 kcal/mol.

Question: With E48Y as the variant, how does the “folding stability dG” value read?
Answer: The value was 4.67 kcal/mol.

Question: With G58K as the variant, how does the “folding stability dG” value read?
Answer: Its value is 4.25 kcal/mol.

Question: Which “folding stability dG” value does the source give for L5E here?
Answer: Its value is 3.72 kcal/mol.

Question: With L5N as the variant, how does the “folding stability dG” value read?
Answer: The value was 3.85 kcal/mol.

Question: For L5P, which “folding stability dG” value is on record?
Answer: Its value is 2.55 kcal/mol.

Question: With L5I as the variant, how does the “folding stability dG” value read?
Answer: Its value is 4.26 kcal/mol.

Question: Which “folding stability dG” value does the source give for L5D here?
Answer: The value was 2 kcal/mol.

Question: With R15H as the variant, how does the “folding stability dG” value read?
Answer: Its value is 4.27 kcal/mol.

Question: Which “folding stability dG” value does the source give for R15E here?
Answer: The value was 4.31 kcal/mol.

Question: With R15Y as the variant, how does the “folding stability dG” value read?
Answer: Its value is 4.58 kcal/mol.

Question: For R15T, which “folding stability dG” value is on record?
Answer: The value was 4.16 kcal/mol.

Question: Which “folding stability dG” value does the source give for R15M here?
Answer: Its value is 4.31 kcal/mol.

Question: Which “folding stability dG” value does the source give for A27T here?
Answer: Its value is 4.26 kcal/mol.

Question: Which “folding stability dG” value does the source give for A27D here?
Answer: Its value is 3.12 kcal/mol.

Question: With A27I as the variant, how does the “folding stability dG” value read?
Answer: The value was 4.34 kcal/mol.

Question: With A27Q as the variant, how does the “folding stability dG” value read?
Answer: Its value is 3.88 kcal/mol.

Question: Which “folding stability dG” value does the source give for A27K here?
Answer: The value was 3.95 kcal/mol.

Question: Which “folding stability dG” value does the source give for A27H here?
Answer: The value was 4.04 kcal/mol.

Question: Which “folding stability dG” value does the source give for V30A here?
Answer: Its value is 4.58 kcal/mol.

Question: For V30Y, which “folding stability dG” value is on record?
Answer: The value was 4.42 kcal/mol.

Question: For V30H, which “folding stability dG” value is on record?
Answer: The value was 4.35 kcal/mol.

Question: With V30T as the variant, how does the “folding stability dG” value read?
Answer: The value was 4.39 kcal/mol.

Question: With V30L as the variant, how does the “folding stability dG” value read?
Answer: Its value is 4.44 kcal/mol.

Question: With I7W as the variant, how does the “folding stability dG” value read?
Answer: Its value is 4.97 kcal/mol.

Question: Which “folding stability dG” value does the source give for I7T here?
Answer: The value was 4.09 kcal/mol.

Question: For Q14T, which “folding stability dG” value is on record?
Answer: Its value is 4.3 kcal/mol.

Question: Which “folding stability dG” value does the source give for Q14I here?
Answer: Its value is 4.1 kcal/mol.

Question: With Q14L as the variant, how does the “folding stability dG” value read?
Answer: Its value is 4.33 kcal/mol.

Question: Which “folding stability dG” value does the source give for Q14G here?
Answer: The value was 4.33 kcal/mol.

Question: For Q14F, which “folding stability dG” value is on record?
Answer: Its value is 4.25 kcal/mol.

Question: For Q14Y, which “folding stability dG” value is on record?
Answer: The value was 4.18 kcal/mol.

Question: Which “folding stability dG” value does the source give for E36K here?
Answer: The value was 4.65 kcal/mol.

Question: With E36M as the variant, how does the “folding stability dG” value read?
Answer: Its value is 4.48 kcal/mol.

Question: With E36W as the variant, how does the “folding stability dG” value read?
Answer: Its value is 4.7 kcal/mol.

Question: With E13M as the variant, how does the “folding stability dG” value read?
Answer: Its value is 4.65 kcal/mol.

Question: With E13Y as the variant, how does the “folding stability dG” value read?
Answer: The value was 4.76 kcal/mol.

Question: Which “folding stability dG” value does the source give for E13D here?
Answer: The value was 4.3 kcal/mol.

Question: With E13I as the variant, how does the “folding stability dG” value read?
Answer: Its value is 4.32 kcal/mol.

Question: Which “folding stability dG” value does the source give for V29S here?
Answer: The value was 4.32 kcal/mol.

Question: For V29M, which “folding stability dG” value is on record?
Answer: The value was 4.4 kcal/mol.

Question: For V29W, which “folding stability dG” value is on record?
Answer: Its value is 4.3 kcal/mol.

Question: Which “folding stability dG” value does the source give for V29G here?
Answer: Its value is 4.47 kcal/mol.

Question: Which “folding stability dG” value does the source give for V29A here?
Answer: The value was 4.3 kcal/mol.

Question: For E53L, which “folding stability dG” value is on record?
Answer: The value was 4.61 kcal/mol.

Question: Which “folding stability dG” value does the source give for E53P here?
Answer: The value was 3.08 kcal/mol.

Question: With E53F as the variant, how does the “folding stability dG” value read?
Answer: The value was 4.49 kcal/mol.

Question: For E53I, which “folding stability dG” value is on record?
Answer: Its value is 4.27 kcal/mol.

Question: Which “folding stability dG” value does the source give for E53R here?
Answer: Its value is 4.03 kcal/mol.

Question: For E53S, which “folding stability dG” value is on record?
Answer: Its value is 4.21 kcal/mol.

Question: For E60F, which “folding stability dG” value is on record?
Answer: The value was 4.07 kcal/mol.

Question: For E60Q, which “folding stability dG” value is on record?
Answer: The value was 4.2 kcal/mol.

Question: Which “folding stability dG” value does the source give for E60K here?
Answer: Its value is 4.38 kcal/mol.

Question: Which “folding stability dG” value does the source give for E60T here?
Answer: The value was 4.4 kcal/mol.

Question: Which “folding stability dG” value does the source give for E60P here?
Answer: The value was 3.44 kcal/mol.

Question: Which “folding stability dG” value does the source give for E60M here?
Answer: The value was 4.11 kcal/mol.

Question: For I38F, which “folding stability dG” value is on record?
Answer: Its value is 4.96 kcal/mol.

Question: Which “folding stability dG” value does the source give for I38T here?
Answer: Its value is 4.44 kcal/mol.

Question: Which “folding stability dG” value does the source give for L63W here?
Answer: The value was 4.73 kcal/mol.

Question: Which “folding stability dG” value does the source give for L63T here?
Answer: The value was 4.24 kcal/mol.

Question: With L63P as the variant, how does the “folding stability dG” value read?
Answer: The value was 4.69 kcal/mol.

Question: For L57C, which “folding stability dG” value is on record?
Answer: The value was 4.2 kcal/mol.

Question: With E1S as the variant, how does the “folding stability dG” value read?
Answer: Its value is 4.32 kcal/mol.

Question: For E1T, which “folding stability dG” value is on record?
Answer: The value was 4.26 kcal/mol.

Question: With E1D as the variant, how does the “folding stability dG” value read?
Answer: The value was 4.2 kcal/mol.

Question: Which “folding stability dG” value does the source give for E1R here?
Answer: The value was 3.94 kcal/mol.

Question: For A47I, which “folding stability dG” value is on record?
Answer: Its value is 4.51 kcal/mol.

Question: For L51I, which “folding stability dG” value is on record?
Answer: The value was 4.41 kcal/mol.

Question: Which “folding stability dG” value does the source give for L51C here?
Answer: Its value is 4.41 kcal/mol.

Question: With L51P as the variant, how does the “folding stability dG” value read?
Answer: Its value is 2.79 kcal/mol.

Question: Which “folding stability dG” value does the source give for L51D here?
Answer: The value was 3.96 kcal/mol.

Question: For L51Y, which “folding stability dG” value is on record?
Answer: Its value is 4.08 kcal/mol.

Question: Which “folding stability dG” value does the source give for L51M here?
Answer: The value was 4.4 kcal/mol.

Question: For L51V, which “folding stability dG” value is on record?
Answer: The value was 4.39 kcal/mol.

Question: Which “folding stability dG” value does the source give for E31W here?
Answer: The value was 4.68 kcal/mol.

Question: For E31I, which “folding stability dG” value is on record?
Answer: The value was 4.45 kcal/mol.

Question: With E31S as the variant, how does the “folding stability dG” value read?
Answer: Its value is 4.6 kcal/mol.

Question: For K10H, which “folding stability dG” value is on record?
Answer: The value was 4.28 kcal/mol.

Question: Which “folding stability dG” value does the source give for K10I here?
Answer: Its value is 4.09 kcal/mol.

Question: Which “folding stability dG” value does the source give for K10S here?
Answer: The value was 4.16 kcal/mol.

Question: Which “folding stability dG” value does the source give for K8E here?
Answer: Its value is 3.87 kcal/mol.

Question: Which “folding stability dG” value does the source give for K8W here?
Answer: The value was 4.83 kcal/mol.

Question: With K8D as the variant, how does the “folding stability dG” value read?
Answer: The value was 3.72 kcal/mol.

Question: For K8L, which “folding stability dG” value is on record?
Answer: Its value is 4.31 kcal/mol.

Question: Which “folding stability dG” value does the source give for K8N here?
Answer: The value was 4.08 kcal/mol.

Question: Which “folding stability dG” value does the source give for K8P here?
Answer: Its value is 4.21 kcal/mol.

Question: For G35S, which “folding stability dG” value is on record?
Answer: Its value is 4.48 kcal/mol.

— the MegaScale stability set (Tsuboyama et al. 2023)
